From patent US20210238276A1 (INTEGRAL MOLECULAR, published 2021)

Columns and labels:
Experiment in all cases: flow cytometry, alanine-scan library in HEK-293T, with cytochalasin B
hsGLUT4 L260A = molecular target: T1, hsGLUT4 L260A (human, UniProt P14672 1-509)
T1 sequence: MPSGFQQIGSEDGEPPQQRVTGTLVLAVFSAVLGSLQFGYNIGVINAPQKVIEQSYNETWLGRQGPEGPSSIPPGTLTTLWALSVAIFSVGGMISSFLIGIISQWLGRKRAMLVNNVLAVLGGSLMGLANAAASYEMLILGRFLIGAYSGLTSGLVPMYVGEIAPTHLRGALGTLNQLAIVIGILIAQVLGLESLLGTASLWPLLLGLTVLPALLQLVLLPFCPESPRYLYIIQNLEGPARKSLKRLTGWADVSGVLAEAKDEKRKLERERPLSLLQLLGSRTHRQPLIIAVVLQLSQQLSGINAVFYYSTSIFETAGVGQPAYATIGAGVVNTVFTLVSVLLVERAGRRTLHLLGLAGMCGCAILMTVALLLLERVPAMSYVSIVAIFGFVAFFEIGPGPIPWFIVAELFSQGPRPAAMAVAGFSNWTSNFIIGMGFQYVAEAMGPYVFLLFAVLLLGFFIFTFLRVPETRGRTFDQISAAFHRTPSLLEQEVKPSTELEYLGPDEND
How it was run: (§1)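 HEK-293T cells expressing individual GLUT4 alanine mutants were stained 48 h post-transfection with anti-GLUT4 scFv MAbs (2 μg/ml), then biotinylated secondary and streptavidin-PerCP, and read by high-throughput flow cytometry. Where used, cytochalasin B (10 uM final) was given for 30 min before and during primary antibody staining.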

hsGLUT4 L155A = molecular target: T2, hsGLUT4 L155A (human, UniProt P14672 1-509)
T2 sequence: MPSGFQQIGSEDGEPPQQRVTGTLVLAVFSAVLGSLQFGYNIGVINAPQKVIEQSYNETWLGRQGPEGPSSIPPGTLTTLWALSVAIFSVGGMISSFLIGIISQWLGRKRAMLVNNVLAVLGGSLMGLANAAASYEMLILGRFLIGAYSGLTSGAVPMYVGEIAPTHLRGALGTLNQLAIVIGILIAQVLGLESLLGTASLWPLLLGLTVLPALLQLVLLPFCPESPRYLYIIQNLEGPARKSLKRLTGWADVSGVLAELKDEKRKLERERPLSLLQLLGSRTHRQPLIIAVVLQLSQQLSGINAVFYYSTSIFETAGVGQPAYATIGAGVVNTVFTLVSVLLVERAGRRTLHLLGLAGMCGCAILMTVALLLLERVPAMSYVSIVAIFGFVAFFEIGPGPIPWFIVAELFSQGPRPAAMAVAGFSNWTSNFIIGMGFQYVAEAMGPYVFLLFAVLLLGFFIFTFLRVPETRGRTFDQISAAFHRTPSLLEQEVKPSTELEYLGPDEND
How it was run: as §1

hsGLUT4 Y309A = molecular target: T3, hsGLUT4 Y309A (human, UniProt P14672 1-509)
T3 sequence: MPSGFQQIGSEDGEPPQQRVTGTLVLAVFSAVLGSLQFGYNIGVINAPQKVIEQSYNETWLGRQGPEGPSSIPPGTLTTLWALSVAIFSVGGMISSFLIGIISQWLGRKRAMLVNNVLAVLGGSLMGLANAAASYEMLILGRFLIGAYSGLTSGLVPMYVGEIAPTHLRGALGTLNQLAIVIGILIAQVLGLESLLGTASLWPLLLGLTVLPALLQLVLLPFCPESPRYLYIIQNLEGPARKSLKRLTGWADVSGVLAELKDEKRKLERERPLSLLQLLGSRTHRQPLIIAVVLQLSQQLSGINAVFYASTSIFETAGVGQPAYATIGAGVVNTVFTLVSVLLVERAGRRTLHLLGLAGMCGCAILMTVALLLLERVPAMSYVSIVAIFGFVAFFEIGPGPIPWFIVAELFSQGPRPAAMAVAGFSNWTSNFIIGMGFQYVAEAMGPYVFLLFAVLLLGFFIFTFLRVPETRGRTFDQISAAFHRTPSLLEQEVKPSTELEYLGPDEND
How it was run: as §1

hsGLUT4 M158A = molecular target: T4, hsGLUT4 M158A (human, UniProt P14672 1-509)
T4 sequence: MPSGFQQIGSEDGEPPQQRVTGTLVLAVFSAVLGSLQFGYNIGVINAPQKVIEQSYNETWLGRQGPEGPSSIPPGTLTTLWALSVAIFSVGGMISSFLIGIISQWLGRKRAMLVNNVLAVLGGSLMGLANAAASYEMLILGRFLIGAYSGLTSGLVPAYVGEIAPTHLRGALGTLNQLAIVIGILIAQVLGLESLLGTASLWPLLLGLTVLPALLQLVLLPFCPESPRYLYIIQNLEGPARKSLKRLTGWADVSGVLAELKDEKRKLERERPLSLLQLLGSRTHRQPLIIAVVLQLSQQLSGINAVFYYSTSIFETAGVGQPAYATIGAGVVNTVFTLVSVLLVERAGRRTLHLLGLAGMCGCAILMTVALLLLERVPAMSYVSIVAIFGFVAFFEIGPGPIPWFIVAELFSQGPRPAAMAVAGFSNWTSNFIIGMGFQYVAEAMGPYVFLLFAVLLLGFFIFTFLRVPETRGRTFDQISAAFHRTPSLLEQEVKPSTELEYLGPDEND
How it was run: as §1

B1: AB102 (Fc fusion)
scFv: ALTQPSSVSANLGGTVKITCSGGGSYGYGWYQQKSPGSAPVTVIYSNDQRPSDIPSRFSGSKSGSTATLTITGVRAEDEAIYYCGSTDSDYVGIFGAGTTLTVLGQSSRSSGGGGSSGGGGSAVTLDESGGGLQTPGGTLSLVCKASGFDFSSYATIWVRQAPGKGLEWVAGISGTGTGSSTGYAPAVKGRATISRDNGQSTVRLQLNNLRAEDTGSYFCAKSTGYGDSWIYPDSIDAWGHGTEVIVSS
notes: also called MAb AB102; not shown: Fc fragment of human IgG1, cloned in frame with the scFv
% of binding to wild type GLUT4 (hsGLUT4 L260A): 42%
% of binding to wild type GLUT4 (hsGLUT4 L155A): 26%
% of binding to wild type GLUT4 (hsGLUT4 Y309A): 24%
% of binding to wild type GLUT4 (hsGLUT4 M158A): 85%
